Source: the supplement of paper PMC9112550, “Optimization of the antimicrobial peptide Bac7 by deep mutational scanning” (BMC Biology, 2022)

tested on: Escherichia coli TOP10; experiment: shrunken log2 fold change of peptide-encoding DNA abundance (4.5 h post-induction vs induction); higher = less antimicrobial activity (less host growth inhibition); conditions: time post-induction: 4.5 h; library: site-saturation at positions 5, 18, 19, 20
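Note: peptides expressed intracellularly from a pBAD plasmid library in pooled LB shake-flask culture, induced with 0.3% L-arabinose, DNA abundance read by NGS, three biological replicates, DESeq2 with apeglm shrinkage.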

Sequence | shrunken log2 fold change
RRIRMRPPRLPRPRPRPYSQPRP | -0.0394
RRIRWRPPRLPRPRPRPGCHPRP | 0.253
RRIRGRPPRLPRPRPRPTFIPRP | -0.0836
RRIRHRPPRLPRPRPRPSHFPRP | -0.0233
RRIRQRPPRLPRPRPRPVDQPRP | 0.0619
RRIRIRPPRLPRPRPRPPKMPRP | -0.0476
RRIRARPPRLPRPRPRPQCIPRP | -0.125
RRIRWRPPRLPRPRPRPPVVPRP | 0.13
RRIRWRPPRLPRPRPRPSGWPRP | 0.422
RRIRERPPRLPRPRPRPAHNPRP | -0.0074
RRIRIRPPRLPRPRPRPMQVPRP | 0.00763
RRIRCRPPRLPRPRPRPYGGPRP | -0.136
RRIRKRPPRLPRPRPRPSRSPRP | 0.0164
RRIRYRPPRLPRPRPRPQRYPRP | -0.771
RRIRLRPPRLPRPRPRPTPNPRP | 0.403
RRIRDRPPRLPRPRPRPKNVPRP | -0.0304
RRIRFRPPRLPRPRPRPDNVPRP | -0.336
RRIRERPPRLPRPRPRPWRHPRP | -0.0998
RRIRTRPPRLPRPRPRPHWPPRP | -0.078
RRIRPRPPRLPRPRPRPFDNPRP | -0.299
RRIRIRPPRLPRPRPRPQTCPRP | -0.141
RRIRLRPPRLPRPRPRPRGVPRP | 0.494
RRIRTRPPRLPRPRPRPHRSPRP | 0.0963
RRIRKRPPRLPRPRPRPHWNPRP | -0.296
RRIRRRPPRLPRPRPRPRDFPRP | 0.298

Sequence | shrunken log2 fold change
RRIRKRPPRLPRPRPRPHSWPRP | 0.0385
RRIRGRPPRLPRPRPRPYWSPRP | -0.251
RRIRCRPPRLPRPRPRPAFEPRP | 0.0704
RRIRHRPPRLPRPRPRPYYIPRP | 0.0121
RRIRWRPPRLPRPRPRPLHRPRP | 0.0218
RRIRWRPPRLPRPRPRPSADPRP | 0.115
RRIRTRPPRLPRPRPRPCEQPRP | 0.0027
RRIRYRPPRLPRPRPRPCQAPRP | -0.269
RRIRTRPPRLPRPRPRPSALPRP | -0.178
RRIRDRPPRLPRPRPRPRKEPRP | -0.00977
RRIRMRPPRLPRPRPRPWSSPRP | -0.145
RRIRIRPPRLPRPRPRPIECPRP | -0.314
RRIRVRPPRLPRPRPRPWYTPRP | -0.507
RRIRQRPPRLPRPRPRPYRNPRP | -0.0521
RRIRARPPRLPRPRPRPKAIPRP | 0.496
RRIRNRPPRLPRPRPRPFDLPRP | -0.176
RRIRNRPPRLPRPRPRPNEDPRP | 0.00927
RRIRNRPPRLPRPRPRPYVHPRP | -0.253
RRIRARPPRLPRPRPRPTAFPRP | 0.815
RRIRGRPPRLPRPRPRPRPQPRP | 0.863
RRIRERPPRLPRPRPRPPKMPRP | -0.212
RRIRNRPPRLPRPRPRPYNVPRP | -0.526
RRIRNRPPRLPRPRPRPTFMPRP | -0.401
RRIRHRPPRLPRPRPRPRYYPRP | -0.332
RRIRARPPRLPRPRPRPCHMPRP | -0.0816

Sequence | shrunken log2 fold change
RRIRRRPPRLPRPRPRPVVIPRP | 0.0625
RRIRCRPPRLPRPRPRPGPPPRP | 0.942
RRIRNRPPRLPRPRPRPWEAPRP | -0.173
RRIRTRPPRLPRPRPRPVSNPRP | -0.442
RRIRDRPPRLPRPRPRPHQPPRP | -0.017
RRIRSRPPRLPRPRPRPKAMPRP | -0.148
RRIRLRPPRLPRPRPRPDCPPRP | 0.0832
RRIRCRPPRLPRPRPRPTARPRP | 0.105
RRIRARPPRLPRPRPRPVMLPRP | -0.19
RRIRPRPPRLPRPRPRPEPDPRP | 0.537
RRIRYRPPRLPRPRPRPTNFPRP | -0.16
RRIRIRPPRLPRPRPRPWETPRP | -0.0306
RRIRERPPRLPRPRPRPFITPRP | -0.314
RRIRVRPPRLPRPRPRPHGGPRP | -0.0243
RRIRTRPPRLPRPRPRPEFGPRP | 0.0617
RRIRQRPPRLPRPRPRPDTYPRP | -0.154
RRIRTRPPRLPRPRPRPSAFPRP | -0.0245
RRIRRRPPRLPRPRPRPAPAPRP | 1.1
RRIRQRPPRLPRPRPRPRETPRP | 0.248
RRIRCRPPRLPRPRPRPSVPPRP | -0.784
RRIRNRPPRLPRPRPRPMWYPRP | -0.0267
RRIRWRPPRLPRPRPRPYVYPRP | 0.0229
RRIRKRPPRLPRPRPRPCPAPRP | 0.17
RRIRRRPPRLPRPRPRPVPFPRP | 0.0998
RRIRHRPPRLPRPRPRPCCLPRP | -0.82

Sequence | shrunken log2 fold change
RRIRFRPPRLPRPRPRPNHWPRP | -0.131
RRIRWRPPRLPRPRPRPHEAPRP | 0.273
RRIRIRPPRLPRPRPRPNKNPRP | -0.701
RRIRFRPPRLPRPRPRPVLDPRP | -0.474
RRIRHRPPRLPRPRPRPDSIPRP | -0.0212
RRIRYRPPRLPRPRPRPMQHPRP | -0.17
RRIRCRPPRLPRPRPRPWSVPRP | -0.34
RRIRNRPPRLPRPRPRPMTYPRP | -0.0655
RRIRLRPPRLPRPRPRPMDRPRP | -0.0152
RRIRIRPPRLPRPRPRPACMPRP | -0.0966
RRIRWRPPRLPRPRPRPMTTPRP | 0.1
RRIRTRPPRLPRPRPRPAPYPRP | 0.151
RRIRGRPPRLPRPRPRPQCAPRP | 1.11
RRIRGRPPRLPRPRPRPIIYPRP | 0.0582
RRIRDRPPRLPRPRPRPTDAPRP | -0.036
RRIRLRPPRLPRPRPRPHWVPRP | -0.189
RRIRARPPRLPRPRPRPCQFPRP | -0.0602
RRIRVRPPRLPRPRPRPCALPRP | -0.115
RRIRRRPPRLPRPRPRPEPHPRP | 0.315
RRIRNRPPRLPRPRPRPLTMPRP | -0.429
RRIRARPPRLPRPRPRPKVAPRP | 0.698
RRIRNRPPRLPRPRPRPKVVPRP | 0.0279
RRIRFRPPRLPRPRPRPKFDPRP | -0.0676
RRIRDRPPRLPRPRPRPDQQPRP | 0.0408
RRIRIRPPRLPRPRPRPGGNPRP | -0.0373

Sequence | shrunken log2 fold change
RRIRNRPPRLPRPRPRPQDIPRP | -0.252
RRIRNRPPRLPRPRPRPCELPRP | -0.0966
RRIRKRPPRLPRPRPRPYWLPRP | -0.229
RRIRFRPPRLPRPRPRPEFTPRP | 1.75
RRIRRRPPRLPRPRPRPGQIPRP | 0.0802
RRIRTRPPRLPRPRPRPTWMPRP | -0.0339
RRIRRRPPRLPRPRPRPGHAPRP | 0.398
RRIRPRPPRLPRPRPRPEIRPRP | 0.0106
RRIRVRPPRLPRPRPRPQNPPRP | -0.396
RRIRSRPPRLPRPRPRPVQWPRP | 0.175
RRIRSRPPRLPRPRPRPLLPPRP | 0.405
RRIRVRPPRLPRPRPRPWKCPRP | -0.173
RRIRFRPPRLPRPRPRPQAMPRP | 0.0123
RRIRLRPPRLPRPRPRPIDTPRP | 0.115
RRIRGRPPRLPRPRPRPYAEPRP | 1.19
RRIRFRPPRLPRPRPRPECAPRP | 0.724
RRIRVRPPRLPRPRPRPRKVPRP | -0.0445
RRIRNRPPRLPRPRPRPHDWPRP | 0.263
RRIRSRPPRLPRPRPRPLGRPRP | 0.351
RRIRWRPPRLPRPRPRPCGFPRP | 0.395
RRIRWRPPRLPRPRPRPMGCPRP | 0.117
RRIRDRPPRLPRPRPRPKHSPRP | -0.211
RRIRVRPPRLPRPRPRPATLPRP | -0.00452
RRIRWRPPRLPRPRPRPFVPPRP | -0.266
RRIRDRPPRLPRPRPRPVMHPRP | -0.112

Sequence | shrunken log2 fold change
RRIRSRPPRLPRPRPRPPTLPRP | 0.0631
RRIRRRPPRLPRPRPRPGWHPRP | 0.176
RRIRQRPPRLPRPRPRPCQGPRP | -0.0332
RRIRDRPPRLPRPRPRPNKNPRP | -0.343
RRIRLRPPRLPRPRPRPNMTPRP | -0.0555
RRIRFRPPRLPRPRPRPYCTPRP | -0.873
RRIRYRPPRLPRPRPRPVVMPRP | 0.00213
RRIRDRPPRLPRPRPRPNVKPRP | -0.631
RRIRMRPPRLPRPRPRPLGLPRP | 0.717
RRIRNRPPRLPRPRPRPVRRPRP | 0.112
RRIRHRPPRLPRPRPRPHWDPRP | -0.557
RRIRLRPPRLPRPRPRPDTVPRP | -0.399
RRIRKRPPRLPRPRPRPNYGPRP | -0.226
RRIRNRPPRLPRPRPRPNTKPRP | -0.306
RRIRMRPPRLPRPRPRPDFYPRP | 0.06
RRIRARPPRLPRPRPRPPFIPRP | -0.103
RRIRERPPRLPRPRPRPTNPPRP | -0.182
RRIRTRPPRLPRPRPRPSRQPRP | 0.15
RRIRHRPPRLPRPRPRPYGCPRP | -0.118
RRIRKRPPRLPRPRPRPFSPPRP | -0.102
RRIRFRPPRLPRPRPRPTHCPRP | -0.0892
RRIRVRPPRLPRPRPRPPENPRP | -0.0386
RRIRARPPRLPRPRPRPCQTPRP | -0.0627
RRIRWRPPRLPRPRPRPNCRPRP | 0.0177
RRIRLRPPRLPRPRPRPMLCPRP | -0.0499
